3 molecules from patent US20140087995A1 (published 2014) can be followed below.

Numbered stars: 1 amine (or outer) side, 2 acyl side, 3 side chain; on linkers, the order of the positions; unused ones are H or OH. Bridge positions count the residues as written; N and C are the ends. Side chains are listed from the residue outwards. Ends that are not written are not given here. * marks the point of attachment. C20 diacid = O=C(O)CCCCCCCCCCCCCCCCCCC(=O)*; γGlu = O=C(O)[C@H](CCC(=O)[*:2])N[*:1]; AEEA = NCCOCCOCC(=O)O

In assay [1] the target is T1, human calcitonin receptor (human, UniProt P30988 25-474).
T1 construct: whole, on cells; Assayed as cell membranes of BHK tk'ts 13 cells stably transfected with the human calcitonin receptor (Assay VII); also called hCTR; hCT
T1 sequence (looked up): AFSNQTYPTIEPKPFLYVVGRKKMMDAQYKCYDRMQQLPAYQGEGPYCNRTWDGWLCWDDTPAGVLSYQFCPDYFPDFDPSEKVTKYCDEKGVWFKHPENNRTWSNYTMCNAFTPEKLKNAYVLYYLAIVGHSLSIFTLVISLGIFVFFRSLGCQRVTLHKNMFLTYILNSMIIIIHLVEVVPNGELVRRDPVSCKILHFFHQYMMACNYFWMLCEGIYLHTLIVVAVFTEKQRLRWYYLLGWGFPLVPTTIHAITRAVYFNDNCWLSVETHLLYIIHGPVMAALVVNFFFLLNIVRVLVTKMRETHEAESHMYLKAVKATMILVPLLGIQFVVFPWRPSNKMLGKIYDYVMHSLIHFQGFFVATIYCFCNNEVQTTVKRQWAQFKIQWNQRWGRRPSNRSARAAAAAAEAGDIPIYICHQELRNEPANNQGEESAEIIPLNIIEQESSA
In words: SPA competition vs 125I-calcitonin, membranes of BHK cells with human calcitonin receptor (Assay VII). The procedure, abridged: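 BHK hCTR membranes 35 ng/μL + SPA beads 0.05 mg/well; buffer 50 mM Hepes pH 7.4, 1 mM CaCl2, 5 mM MgCl₂, 0.1% OA, 0.02% Tween20. 120 min, 25° C., shaking. Scintillation count; IC50 by one-site binding competition.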

The target in assay [2] is T1, human calcitonin receptor. In words: IC50 at hCTR divided by IC50 at hAmylin-R (SPA competition assays V and VII). The procedure, abridged: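 IC₅₀ values were derived by one-site competition analysis of SPA counts. Cell membranes (35 ng/μL) with SPA beads were incubated with test compounds for 120 min at 25° C in Hepes buffer, pH 7.4, containing CaCl2, MgCl₂, OA and Tween20.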

B1: N^ε1-[(4S)-4-carboxy-4-(19-carboxynonadecanoylamino)butanoyl]-[His14,Arg17,Pro21,Pro27]-h-amylin (peptide)
peptide: K([γGlu-C20 diacid])CNTATCATQRLAHFLRHSSPNFGAIPSSTNVGSNTY-NH2
modifications: disulfide 2-7; N-terminus assumed
SMILES: CC[C@H](C)[C@H](NC(=O)[C@H](C)NC(=O)CNC(=O)[C@H](Cc1ccccc1)NC(=O)[C@H](CC(N)=O)NC(=O)[C@@H]1CCCN1C(=O)[C@H](CO)NC(=O)[C@H](CO)NC(=O)[C@H](Cc1c[nH]cn1)NC(=O)[C@H](CCCNC(=N)N)NC(=O)[C@H](CC(C)C)NC(=O)[C@H](Cc1ccccc1)NC(=O)[C@H](Cc1c[nH]cn1)NC(=O)[C@H](C)NC(=O)[C@H](CC(C)C)NC(=O)[C@H](CCCNC(=N)N)NC(=O)[C@H](CCC(N)=O)NC(=O)[C@@H](NC(=O)[C@H](C)NC(=O)[C@@H]1CSSC[C@H](NC(=O)[C@@H](N)CCCCNC(=O)CC[C@H](NC(=O)CCCCCCCCCCCCCCCCCCC(=O)O)C(=O)O)C(=O)N[C@@H](CC(N)=O)C(=O)N[C@@H]([C@@H](C)O)C(=O)N[C@@H](C)C(=O)N[C@@H]([C@@H](C)O)C(=O)N1)[C@@H](C)O)C(=O)N1CCC[C@H]1C(=O)N[C@@H](CO)C(=O)N[C@@H](CO)C(=O)N[C@H](C(=O)N[C@@H](CC(N)=O)C(=O)N[C@H](C(=O)NCC(=O)N[C@@H](CO)C(=O)N[C@@H](CC(N)=O)C(=O)N[C@H](C(=O)N[C@@H](Cc1ccc(O)cc1)C(N)=O)[C@@H](C)O)C(C)C)[C@@H](C)O
notes: also called compound 70
For the molecule B1, the IC50 (as a rule, the concentration that inhibits the measured activity by half) in assay [1] is 10.3 nM. The “Ratio hCT/hAmylin binding” value in assay [2] was 60.8.

B2: N^ε1-[(4S)-4-carboxy-4-[[(4S)-4-carboxy-4-(19-carboxynonadecanoylamino)butanoyl]amino]butanoyl]-[His14,Arg17,Pro21,Pro27]-h-amylin (peptide)
peptide: K([γGlu-γGlu-C20 diacid])CNTATCATQRLAHFLRHSSPNFGAIPSSTNVGSNTY-NH2
modifications: disulfide 2-7; N-terminus assumed
SMILES: CC[C@H](C)[C@H](NC(=O)[C@H](C)NC(=O)CNC(=O)[C@H](Cc1ccccc1)NC(=O)[C@H](CC(N)=O)NC(=O)[C@@H]1CCCN1C(=O)[C@H](CO)NC(=O)[C@H](CO)NC(=O)[C@H](Cc1c[nH]cn1)NC(=O)[C@H](CCCNC(=N)N)NC(=O)[C@H](CC(C)C)NC(=O)[C@H](Cc1ccccc1)NC(=O)[C@H](Cc1c[nH]cn1)NC(=O)[C@H](C)NC(=O)[C@H](CC(C)C)NC(=O)[C@H](CCCNC(=N)N)NC(=O)[C@H](CCC(N)=O)NC(=O)[C@@H](NC(=O)[C@H](C)NC(=O)[C@@H]1CSSC[C@H](NC(=O)[C@@H](N)CCCCNC(=O)CC[C@H](NC(=O)CC[C@H](NC(=O)CCCCCCCCCCCCCCCCCCC(=O)O)C(=O)O)C(=O)O)C(=O)N[C@@H](CC(N)=O)C(=O)N[C@@H]([C@@H](C)O)C(=O)N[C@@H](C)C(=O)N[C@@H]([C@@H](C)O)C(=O)N1)[C@@H](C)O)C(=O)N1CCC[C@H]1C(=O)N[C@@H](CO)C(=O)N[C@@H](CO)C(=O)N[C@H](C(=O)N[C@@H](CC(N)=O)C(=O)N[C@H](C(=O)NCC(=O)N[C@@H](CO)C(=O)N[C@@H](CC(N)=O)C(=O)N[C@H](C(=O)N[C@@H](Cc1ccc(O)cc1)C(N)=O)[C@@H](C)O)C(C)C)[C@@H](C)O
notes: also called compound 92
Turning to B2, the concentration for half-maximal inhibition (IC50) in assay [1] stood at 26 nM. For the same molecule, in assay [2], the “Ratio hCT/hAmylin binding” value was 145.

B3: N^ε1-[2-[2-[2-(19-carboxynonadecanoylamino)ethoxy]ethoxy]acetyl]-[His14,Arg17,Pro21,Pro27]-h-amylin (peptide)
peptide: K([AEEA-C20 diacid])CNTATCATQRLAHFLRHSSPNFGAIPSSTNVGSNTY-NH2
modifications: disulfide 2-7; N-terminus assumed
SMILES: CC[C@H](C)[C@H](NC(=O)[C@H](C)NC(=O)CNC(=O)[C@H](Cc1ccccc1)NC(=O)[C@H](CC(N)=O)NC(=O)[C@@H]1CCCN1C(=O)[C@H](CO)NC(=O)[C@H](CO)NC(=O)[C@H](Cc1c[nH]cn1)NC(=O)[C@H](CCCNC(=N)N)NC(=O)[C@H](CC(C)C)NC(=O)[C@H](Cc1ccccc1)NC(=O)[C@H](Cc1c[nH]cn1)NC(=O)[C@H](C)NC(=O)[C@H](CC(C)C)NC(=O)[C@H](CCCNC(=N)N)NC(=O)[C@H](CCC(N)=O)NC(=O)[C@@H](NC(=O)[C@H](C)NC(=O)[C@@H]1CSSC[C@H](NC(=O)[C@@H](N)CCCCNC(=O)COCCOCCNC(=O)CCCCCCCCCCCCCCCCCCC(=O)O)C(=O)N[C@@H](CC(N)=O)C(=O)N[C@@H]([C@@H](C)O)C(=O)N[C@@H](C)C(=O)N[C@@H]([C@@H](C)O)C(=O)N1)[C@@H](C)O)C(=O)N1CCC[C@H]1C(=O)N[C@@H](CO)C(=O)N[C@@H](CO)C(=O)N[C@H](C(=O)N[C@@H](CC(N)=O)C(=O)N[C@H](C(=O)NCC(=O)N[C@@H](CO)C(=O)N[C@@H](CC(N)=O)C(=O)N[C@H](C(=O)N[C@@H](Cc1ccc(O)cc1)C(N)=O)[C@@H](C)O)C(C)C)[C@@H](C)O
notes: also called compound 90
Turning to B3, in assay [1], the IC50 came to 2.57 nM. Besides, in assay [2], the “Ratio hCT/hAmylin binding” value was 42.2.
